Assays:
Experiment in all cases: cell-based or functional assay
[1] = molecular target: T1, human MMUT R616C (patient variant) (human, UniProt P22033 33-750, R616C)
T1 sequence: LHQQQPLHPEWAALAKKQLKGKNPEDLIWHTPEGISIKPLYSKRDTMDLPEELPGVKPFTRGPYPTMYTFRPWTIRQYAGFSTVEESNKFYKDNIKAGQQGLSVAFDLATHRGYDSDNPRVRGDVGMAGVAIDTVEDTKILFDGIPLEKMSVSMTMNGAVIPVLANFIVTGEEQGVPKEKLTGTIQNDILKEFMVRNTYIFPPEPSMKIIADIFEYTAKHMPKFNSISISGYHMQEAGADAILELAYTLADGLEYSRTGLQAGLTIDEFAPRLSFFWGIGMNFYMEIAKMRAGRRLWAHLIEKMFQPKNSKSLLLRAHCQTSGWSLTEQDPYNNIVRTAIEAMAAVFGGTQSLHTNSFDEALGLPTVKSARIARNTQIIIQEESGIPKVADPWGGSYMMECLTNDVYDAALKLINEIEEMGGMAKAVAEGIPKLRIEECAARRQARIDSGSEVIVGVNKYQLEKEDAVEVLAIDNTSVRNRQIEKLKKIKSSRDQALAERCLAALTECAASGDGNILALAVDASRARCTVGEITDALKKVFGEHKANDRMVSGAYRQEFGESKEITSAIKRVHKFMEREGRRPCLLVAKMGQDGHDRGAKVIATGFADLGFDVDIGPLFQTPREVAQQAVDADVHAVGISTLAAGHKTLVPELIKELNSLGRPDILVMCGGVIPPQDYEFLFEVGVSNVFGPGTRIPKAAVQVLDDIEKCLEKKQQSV

[2] = molecular target: T2, human MMUT R694W (patient variant) (human, UniProt P22033 33-750, R694W)
T2 sequence: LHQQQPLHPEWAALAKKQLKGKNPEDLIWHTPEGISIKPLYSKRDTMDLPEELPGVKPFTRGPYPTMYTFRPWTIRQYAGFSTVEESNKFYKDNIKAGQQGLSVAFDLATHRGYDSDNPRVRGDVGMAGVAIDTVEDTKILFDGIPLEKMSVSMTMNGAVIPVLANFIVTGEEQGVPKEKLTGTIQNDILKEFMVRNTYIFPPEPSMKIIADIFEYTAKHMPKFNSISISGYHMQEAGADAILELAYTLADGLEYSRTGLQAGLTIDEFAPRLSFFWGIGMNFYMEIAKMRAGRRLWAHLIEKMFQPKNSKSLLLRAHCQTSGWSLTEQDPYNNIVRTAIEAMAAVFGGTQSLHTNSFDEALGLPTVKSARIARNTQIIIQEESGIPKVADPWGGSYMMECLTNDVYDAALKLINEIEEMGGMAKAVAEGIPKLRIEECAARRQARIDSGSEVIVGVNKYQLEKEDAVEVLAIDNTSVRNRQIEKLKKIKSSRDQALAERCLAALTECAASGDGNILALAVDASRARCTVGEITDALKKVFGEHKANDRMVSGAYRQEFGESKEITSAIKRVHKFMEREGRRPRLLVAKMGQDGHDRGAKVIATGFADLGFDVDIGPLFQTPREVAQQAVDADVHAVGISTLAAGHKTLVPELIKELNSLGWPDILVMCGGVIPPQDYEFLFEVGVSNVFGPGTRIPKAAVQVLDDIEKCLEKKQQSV

[3] = molecular target: T3, human MMUT R228Q (patient variant) (human, UniProt P22033 33-750, R228Q)
T3 sequence: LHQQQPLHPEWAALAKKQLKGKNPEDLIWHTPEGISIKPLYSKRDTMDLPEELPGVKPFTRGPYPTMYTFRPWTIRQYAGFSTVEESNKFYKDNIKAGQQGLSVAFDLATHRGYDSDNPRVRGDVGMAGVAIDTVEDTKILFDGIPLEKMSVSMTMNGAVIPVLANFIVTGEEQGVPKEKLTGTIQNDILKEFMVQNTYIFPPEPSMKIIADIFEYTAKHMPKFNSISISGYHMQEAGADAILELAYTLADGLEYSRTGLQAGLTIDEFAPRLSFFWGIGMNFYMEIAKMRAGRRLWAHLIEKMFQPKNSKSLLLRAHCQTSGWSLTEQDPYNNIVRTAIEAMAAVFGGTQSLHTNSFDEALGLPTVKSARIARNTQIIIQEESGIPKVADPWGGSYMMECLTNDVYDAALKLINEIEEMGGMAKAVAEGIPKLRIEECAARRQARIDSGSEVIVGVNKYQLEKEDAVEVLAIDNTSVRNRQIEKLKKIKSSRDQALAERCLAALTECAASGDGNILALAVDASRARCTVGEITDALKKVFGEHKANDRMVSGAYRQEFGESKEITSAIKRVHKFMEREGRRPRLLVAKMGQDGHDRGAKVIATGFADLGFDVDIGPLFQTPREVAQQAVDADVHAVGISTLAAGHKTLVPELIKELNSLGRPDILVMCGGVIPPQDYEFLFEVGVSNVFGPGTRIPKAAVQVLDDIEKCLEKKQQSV

B1: human MMAA (G-protein chaperone of MMUT), wild type (enzyme)
chain: KDHTEGLSDKEQRFVDKLYTGLIQGQRACLAEAITLVESTHSRKKELAQVLLQKVLLYHREQEQSNKGKPLAFRVGLSGPPGAGKSTFIEYFGKMLTERGHKLSVLAVDPSSCTSGGSLLGDKTRMTELSRDMNAYIRPSPTRGTLGGVTRTTNEAILLCEGAGYDIILIETVGVGQSEFAVADMVDMFVLLLPPAGGDELQGIKRGIIEMADLVAVTKSDGDLIVPARRIQAEYVSALKLLRKRSQVWKPKVIRISARSGEGISEMWDKMKDFQDLMLASGELTAKRRKQQKVWMWNLIQESVLEHFRTHPTVREQIPLLEQKVLIGALSPGLAADFLLKAFKSRD
[1]
  GAP activation: GTPase activity of MMAA in the presence of MMUT, fold attenuation against wild-type MMUT: 7 fold
[2]
  GAP activation: GTPase activity of MMAA in the presence of MMUT, fold attenuation against wild-type MMUT: 12 fold
[3]
  GAP activation: GTPase activity of MMAA in the presence of MMUT, fold attenuation against wild-type MMUT: 12 fold

From PMC10356863, “Architecture of the human G-protein-methylmalonyl-CoA mutase nanoassembly for B12 delivery and repair” (Nature Communications, 2023)
